# According to the DeepSol protein solubility set:
# Experiment: soluble on expression in E. coli; label from the status in PepcDB or PDB records
row,Sequence,soluble on expression in E. coli
1,MGSDKIHHHHHHMSQQQPPAPVEGYQDMVHAAESQFDREQFKQLLMDMVNIPSPTGEEAELARYMADHMTANGLQGQTQYLDDQQANAIGKLPSRSKQGPELLLYASFDTHLGGSDEEERWAGQPLPSMLRPQARLEGDEISGLGAENPKAYAACVTTAATCIAKAGLELPGELTVGLGAGGMTALSRPGFSRRNIGHGAGVMFMLQRGYRPDYCVMCKPVYAVAWEEVGICNFTIRVKGAMGYVGVRHMMPQDQNPFPQVAKVIEALEAWFPTYTARHTSGLVAPQGGISAIEGGWPHKPIITTADVVLHVDIRPSPRTDPVQVKRELQAMLTELSQQHPDVVTELEATLAIPGATTSPDNWIIQSMIRAWEDVEQTPHEPFLNMSGYTDLSVIRQWGVPAARLGVPFRHQEPDPEDSLPMNRVHLDDCYRLIQVLIRSAIDTCSRPIEITQQYQ,not soluble
2,MGSDKIHHHHHHMSQTQQSASITSETQSFDVILVGGGMVGAATAIGLAQQGLHIAVIESFAPEAYSPEQALDVRVSAISVASEHLLEQLGALDSLLKMRNVPYLGLETWELDGCITQFHSSQIGASHLGHIVENRLVQLALWEQMQQWENIRLFCPERVAHFARGVDTVSVHLQSGCLLEAKLLVGADGANSHVRQWAGIGISGWDYAQSAMLINIQTTQGQQDVTWQQFTPSGPRSLLPLPGNHASLVWYDDANRIKQLMQLNNKQLAEQIRQHFPARLDSDFIVEAKGSFALTRRHAQVYVKPNVVILGDAAHTINPLAGQGVNLGFKDVEALLSVIKAALTEDKPWWSTEVLGKYQAKRYLDNQLMMTTMDVFYAGFSNDILPLKLLRNGALKLANINSPLKQTVLKYAMGLN,not soluble
3,MGSDKIHHHHHHMSQVNALQLTGISKSFDGFKALIDADFTACWGEVHALLGENGAGKSSLMNIAAGLYAPETGTLMLDDNPVQLQGPKDASRYRIGMVHQHFKLVKPFTVAQNILLALPEQPGEGSYRKRLRMLERDIVRKAEELGFAIDPSRVVDSLSVAEQQRVEILKVLLAGARILILDEPTAVLTDQEAERLLLTVQAFARQGAAVILVTHKMADVKRYADRVTVMRGGRTIQTLDPQRVSVEQLVQLTVGESVPVAAHHPAVPGEVRLQVKDLRSVGGSALNGVNMTLRAGQIYGIAGVGGNGQAELANALMGLPQATEGDIHLAPFGDLRNASAEQRRQLRIASIPADRYGAALAGSLSVAENFGIGNIHSGHYGSFWRLGYKRLKQDAQRAVESFDVQGVRSLDQKAALLSGGNAQKLVIAREFSRDPQLVLVHSPSRGLDVRATQAVHDRLRAARDAGAAVLLISEDLDEVLALADRIGVMNGGRIVAEFDHPADRQAIGKAMVSHD,not soluble
4,MGSDKIHHHHHHMSRFTYAYMMMTRLETLKNNLQAAFGQDLALTESLGELTLEVAAEQWFSACTKLRTDPALRFESCIDLCGVDYLTWGNGTQPEEKTGPVTHGRYAVVVHLLSIEHNWRLRVRTWAPDDEFPMVSSLLECWPGVNWFEREAFDLYGIVFEGHPDLRRILTDYGFIGHPFRKDFPLSGTVEMRYDPEQKRVIYQPVTIDPREITPRVVREGSYGMGR,not soluble
5,MGSDKIHHHHHHMSRKDVVAGIRNEEGISTVLDLLKQSFGERFQTGQSFREQHAHTTTYLPAQLPDGVVFVESAEDVKTVVRTCAQHKVPMVPFGVGSSLEGQVNAAHGGISIDFTRMDKVLEVNAEDLDCTVQPGVTREALNTYLRDTGLFFPIDPGANASIGGMASTRASGTNAVRYGTMKDNVMALTVVTANGEEIRTAHRARKSSAGYDLTRLFVGAEGTLGVITSITLKLQGIPEKIGGGVCAFADVKSACDAVIMTIQMGIPVARIELLDAMQVRACNAYSNLSLPERPTLFLEFHGTEQTVALQAQQFAAIAEEYGAEDLRFTSDPQERAQLWKARHNAYWAGRALAPELAGLSTDVCVPISKLAECVAETQADIAETGLLAPIVGHVGDGNFHLLILFDDKDAENVDKVEAFMARLNERALAMDGTCTGEHGVGQGKMSYLEAELGGALDVMRQVKRGLDPDNLFNPGKIFRL,not soluble
6,MGSDKIHHHHHHMSRTQEKHNRSVSKDVLVVGGGTSGFVAAIAAARNGASVLLLEQRDHLGGTHSGGMVMMIRSMRHMKAPANMEQKKIMMTGYESSFDDEQVVRSIVQEYINRMLEIGSAWGRKDEATARQMFDPEIAKWVIQDMVAEAGVEVWLNTQATDVIMEGNALKGVVIESLRDRVEVHAGITIDTTGDGDIAAAAGAAFEFGSPEDGKCQPASLYFAVGGVQLDKTIAYMRDHANEFGEEYVKTMVGLKEQNKPITMFPFKEKIREALKNGDYPIPYGVETVNPDTLSYIVRPMFRNGKFRYDVTYHNMDMAYNFDATDRVELTKATLAMRDLANKMAKFYRKYVPGYEDSYLSYTAQSVGIRDSRRIVCDYTLTREDVLAGQVFPDGIGRYGSLMDVHDKSGKKSLSLVEVGGHGWFHVPFRSLLPKGIENLMVAGRCISADYDAQGSVRSQAASMVTGQATGTAAALAVQQKRKLRELDVSALQEVLKAQNQVI,not soluble
7,MGSDKIHHHHHHMSSASLLWCHSGVSTVRFGERIFTLVAGDLLFAPEEAQVADDSQGLVLNIRFETLNIMGPARRIHLGHVWNDRLTFEYSRSLFGKETLSPDIARLFTDRVPTPPLPAPRKARAVAQVLVSNPADQTSLEEFAEIQGVSARTLQRQFLKSTGYSFSEWRAAQRVCVAASLLAHDFSISVVANLVGFAATSSLTRAFRRHTGATPSTFTTGQIGMGSAGHPPRIPATTTFAEAHQDQQLWIYSGTATVTTPGYCRFMGQGDMVTIPAGTQTRIDVAAGSIAFPVPVGLDEWGMDLTRVVAVNNQQPKPLTILEQSEWSKLSEELLNTPVPVQM,not soluble
8,MGSDKIHHHHHHMSSINYAEKIPNNVNLSEDRKLQRALESWQPHYIDWWKEMGPEGTSTSEIYLRTAISAEPDGWAQFGHVKMEDYRWGIFLAPPEKDRKVNFGAHKGEAAWQEVPGEYRSMLRRLITVQGDTEPASVEQQRLLGKCCPSLYDLRNLFQVNVEEGRHLWAMVYLLHAHFGKDGREEAEEMLARRSGDADKPRILGAFNEKTADWLAFFMFTFITDRDGKYQLCALAESGFDPLSRSCRFMLTEEAHHMFVGESGVGRIIERACQVMKENRTDDVRKFGVIDLPTIQRYLNFHYSVTSDLYGAEVSTNAATSYNMGIKGRYEETKIGDDHQLENTTYSVLHPVNGGFQAIEVPALNALNERLRLDWAEDVAKGVERWNKIIAKHGIDFKLTLPHLAFNRAIGHFSDIAVDPSGKVISTEEFARRRDEWLPSESDLAYVLSLMGSAVTKPGQFANWIAPPARGINNQAVDFDYVRFA,not soluble
9,MGSDKIHHHHHHMSTKPFVYQDPFPLGKDETKYRKIEGSEKHVTVEQFAGKEVLRVCPEALSILANEAMRDVSFLLRPEHNESVAKILRDPEASMNDKGVALAFLRNAEISANFELPICQDTGTATVIAKKGQQVWTGGKDEEYLSKGVYKTYTEENLRYSQTVALNMYDEINTGTNLPAQVEIQAVDGDAYKFLFMAKGGGSANKTMLFQETKALLTPEKLEKFLVDKMKYLGTAACPPYHIAVVVGGCSADQCMKTVKLASAKYLDALPTQGNEHGQAFRDVELEEKLLQAAYKLGIGAQFGGKYFAHDVRVIRLPRHGASCPVGMAVSCSADRNIKAKITRDGLFVEELDRNPGRLIPEQYRGKHEHGVKIDLNRPMKEILAELSKYPVATPLLLNGTIVVGRDIAHAKFKEIIDAGKPVPEYLLNHPIYYAGPAKTPAGKPSGSFGPTTAGRMDSYVDLLQSKGASMIMIAKGNRSQQVTDACQKYGGFYLGSIGGPAAVLAEENIKKVECIDFPELGMEAVWKIEVENFPAFILVDDKGNDFFKQLGL,not soluble
10,MGSDKIHHHHHHMSTPIPSLADAPPVLCVHGIGKTYAEPVLADVSLELRAGEVLALTGENGAGKSTLSKIVGGLVTPTTGSMTLGGAAYAPASRKDAEALGVRMVMQELNLLPTLSVAENLFLNRLPRNLVGWIDRARLRENARHAMAQVGLDAIDPDTLVGTLGIGHQQMVEIARNLIGDCRVLILDEPTAMLTAREVDLLFEQVERLKAHGVALVYISHRLEELKRIARRAAVLRDGRLVHVDEMANLSTDRLVTLMVGRDIGDRIDLGERRIGEVAFKVSGMTREPVVRDVSFEVRAGEIFGISGLIGAGRTELMRLIYGADHADAGSVSLGRGGAAPEPVTIASPSDAVQHGIALITEDRKGEGLLLTQPIAANISLGHLRAVSNKGVVDGRREAALARRQIDAMRIRSAGPSQPVSELSGGNQQKVVIGRWLARDCTVLLFDEPTRGIDVGAKFDIYALMGALAREGRALVVVSSDLRELMAICDRIGVMSAGRMTGLFERGNWTQDALLAAAFAGYAKRDDLLHEPIEPDAKAPDESKLVEY,not soluble
11,MGSDKIHHHHHHMSVECFVTGGSGFVGQHLLAGLTAQGHKTWVLMRSPGNIERLKEQVGQLGGNPEYIHAVEGDISQEGLGLSEADKERVTSAAVFFHLAAQFSWGLTPERARTVNVQGALSVARLAASQRIRLLMVGGFMLQNLNHLASIGVDTQCPENTNWPAVYARVGGYEGSKLESHFAVIRYMQDADADYTIVHPATVCGHSENGHILDGQPLAELIRNLAQGRFKAIPGSASHWLPLVSVDYLVKMITCVAFDPSMANRQVLALYERTPNLQGMLGQIADTLKVKAPHRHIPIGLLRSILTIPGLATRLAISAESLNFIQTQRFDMGNSRQLERKYQFTHPDMTQALENTVRYVNGSLMKKSKSEGAGQRG,not soluble
12,MGSDKIHHHHHHMSVLTVTGLSQRFLDKVLYQDASFQVNIEDHLGVIGQNGVGKSTLIKILTGAQTPDAGKIVWQKHLHVGYLDQYANLVPGQTVIEFLRTAFSDLYRKEAKMNQIYADYANHPDDDLLAKAGELQQELEAGDFYDLETTIQTVAEGLGITAMGMDHPVEALSGGQRSKLILAKLLLEKPDMLLLDEPTNYLDVSHIAWLTDWLQNFEGAFIVISHDFDFLENVTNAVLDIEFGQITKYTGTLKQAMRQKEADHETYLKAFAKQQETIKKTEAFIRKFKAGTRATMAKSREKQLARMDKLTPPGTRSKAHLAFPYAPVNRQILVDVNDLVVGYDKPLLQPMNFSVAKDQIIAFEGFNGVGKSTLLKTLLGLLPAISGNVEIADNVVFGYYEQELHWDQPKQSPVQYLEQRFPALTQKTVRQVLSRTALTSEEANNPLTMLSGGEQAKVKLADLMLQTTNILVMDEPTNHLDDDTKNALREGLQQYPGAVLLVSHEAGFYDSSWVDTVVNVEQLQVKA,not soluble
13,MGSDKIHHHHHHMTAATSVRAQAREEDLSVKEILDSRWFQPEMFKTLDYVKGFVGAKVIFQMLKLGVFDDLLAGKTLEEIASGRSLDPYLLRTVFEYLSVEGLLVKEGRGGGASFRLSDYGSRIKHYEGWFNILIGGYDNIFSNIGAMLEEGIGGYKRDGKWVGVGSCQISKYDTIPITKAFIESVKPDAKQIVDFGCGNALYLCTLAKELGDIKAVGIEPDTSAYEAGLKKVAEMGLQDQVRLVNVDALDYEIDEQPDFILFGFVLQEIIAQIGRPAFIEYLRKLGRKFADSYLMVMEVDYDIDNREVMHSPMGRGYYNPYFLLHPFTNQLLLPKREWDEIFAQAGYDVVRDEVTSPKADPSGFGICYVLKYRGAHC,not soluble
14,MGSDKIHHHHHHMTAAVKTTPGFASRLVNGVLAIKPLANLAKHQARQMMIKRAERIGVPWTKEVKTLQARDWKADLTQIENSQLSYPDYYVTSFHAYETGNLSWQAAFEVEPAAYAVHSKVVEGAEEAQGDPMLRQSYHNILKSQIPNEPQDILDVGCSVGLSTFALQAVYSQAKIIGLDLSPYFLAVANYRAQQRQAKINWLHAQAESTGLPDASFDLVSIFLMCHELPQSATRQILAEMRRVLRPGGYLAIMDMNPKSEVYQKMPAYILTLLKSTEPYLDEYFALDIEQAFVEAGFQTPTITNNTHRHRTVIAQVSG,not soluble
